Reference: article PMC6981147

What was measured:
[1] = target: Rpn13 proteasome (rpn1-ARR, rpn10-uim) (S. cerevisiae) (UniProt P38764)
[2] = target: TM (triple mutant) proteasome (rpn1-ARR, rpn10-uim, rpn13-pru) (S. cerevisiae) (UniProt P38764)
[3] = target: wild-type proteasome (reconstituted from regulatory particle and core particle) (S. cerevisiae) (UniProt P38764)
[4] = target: Rpn10/13 proteasome (rpn1-ARR) (S. cerevisiae) (UniProt P38764)
[5] = target: Rpn13 proteasome (reconstituted proteasome harboring the rpn1-ARR and rpn10-UIM mutations) (S. cerevisiae) (UniProt P38764)
[6] = target: Rpn10 proteasome (rpn1-ARR, rpn13-pru) (S. cerevisiae) (UniProt P38764)
[7] = target: Rpn1 proteasome (reconstituted proteasome harboring the rpn10-UIM and rpn13-pru mutations) (S. cerevisiae) (UniProt P38764)

Supplementary Table 4: KM of degradation (Michaelis-Menten analysis of initial rates of loss of GFP fluorescence, 25 nM proteasome, 1 mM ATP, 30 °C) [1] [nM]	Supplementary Table 4: KM of degradation (Michaelis-Menten analysis of initial rates of loss of GFP fluorescence, 25 nM proteasome, 1 mM ATP, 30 °C) [2] [nM]	Supplementary Table 4: KM of degradation (Michaelis-Menten analysis of initial rates of loss of GFP fluorescence, 25 nM proteasome, 1 mM ATP, 30 °C) [3] [nM]	Substance	further results
1100	1680	50	Ub9(K48)-GFP-35: base protein Ub-GFP-35 with a K48-linked chain of eight ubiquitins attached to its ubiquitin domain (from UniProt P0CG63 1-76; P0CG63 1-76)	
5720	5280		Ub5(K48)-GFP-35: base protein Ub-GFP-35 with a K48-linked chain of four ubiquitins attached to its ubiquitin domain (from UniProt P0CG63 1-76; P0CG63 1-76)	Supplementary Table 4: KM of degradation (Michaelis-Menten analysis of initial rates of loss of GFP fluorescence, 25 nM proteasome, 1 mM ATP, 30 °C) [4]: 58 nM
			UBL-GFP-35 (from UniProt P32628 1-80; P00175 1-35)	initial rate of degradation (GFP fluorescence), single turnover, 5 nM substrate, 25 nM proteasome, 1 mM ATP, 30 °C; against Ub5(K48)-GFP-35 or Ub9(K48)-GFP-35 on the same proteasome [5]: > 4 fold
816	2060	333	Ub5(K63)-GFP-35: base protein Ub-GFP-35 with a K63-linked chain of four ubiquitins attached to its ubiquitin domain (from UniProt P0CG63 1-76; P0CG63 1-76)	Supplementary Table 4: KM of degradation (Michaelis-Menten analysis of initial rates of loss of GFP fluorescence, 25 nM proteasome, 1 mM ATP, 30 °C) [6]: 428 nM
			UBL-GFP-95 (from UniProt P32628 1-80)	initial rate of degradation (GFP fluorescence), single turnover, 5 nM substrate, 25 nM proteasome, 1 mM ATP, 30 °C; against Ub5(K48)-GFP-95 on the same proteasome [7]: 4 fold
